Measured values published in patent US20110294144.
Where a chain is given by its changes, count along the chain named. Numbers in names are those of the source.

B1: human PRKX (hPRKXkai), overexpressed from pPRKXkai plasmid or PRKX overexpression lentivirus (protein)
chain: MEAPGLAQAAAAESDSRKVAEETPDGAPALCPSPEALSPEPPVYSLQDFDTLATVGTGTFGRVHLVKEKTAKHFFALKVMSIPDVIRLKQEQHVHNEKSVLKEVSHPFLIRLFWTWHDERFLYMLMEYVPGGELFSYLRNRGRFSSTTGLFYSAEIICAIEYLHSKEIVYRDLKPENILLDRDGHIKLTDFGFAKKLVDRTWTLCGTPEYLAPEVIQSKGHGRAVDWWALGILIFEMLSGFPPFFDDNPFGIYQKILAGKIDFPRHLDFHVKDLIKKLLVVDRTRRLGNMKNGANDVKHHRWFRSVDWEAVPQRKLKPPIVPKIAGDGDTSNFETYPENDWDTAAPVPQKDLEIFKNF
B2: inactive PRKX protein without kinase activity (D172A), overexpressed from pD172A plasmid or D172A overexpression lentivirus (protein)
chain: B1 chain with D172A

Legend:
[1] = biological target: wild-type human tau overexpressed in H4-tau cells
[2] = biological target: endogenous tau of rat primary nerve cells, P19332
Chain of endogenous tau of rat primary nerve cells, P19332 (P19332 2-752): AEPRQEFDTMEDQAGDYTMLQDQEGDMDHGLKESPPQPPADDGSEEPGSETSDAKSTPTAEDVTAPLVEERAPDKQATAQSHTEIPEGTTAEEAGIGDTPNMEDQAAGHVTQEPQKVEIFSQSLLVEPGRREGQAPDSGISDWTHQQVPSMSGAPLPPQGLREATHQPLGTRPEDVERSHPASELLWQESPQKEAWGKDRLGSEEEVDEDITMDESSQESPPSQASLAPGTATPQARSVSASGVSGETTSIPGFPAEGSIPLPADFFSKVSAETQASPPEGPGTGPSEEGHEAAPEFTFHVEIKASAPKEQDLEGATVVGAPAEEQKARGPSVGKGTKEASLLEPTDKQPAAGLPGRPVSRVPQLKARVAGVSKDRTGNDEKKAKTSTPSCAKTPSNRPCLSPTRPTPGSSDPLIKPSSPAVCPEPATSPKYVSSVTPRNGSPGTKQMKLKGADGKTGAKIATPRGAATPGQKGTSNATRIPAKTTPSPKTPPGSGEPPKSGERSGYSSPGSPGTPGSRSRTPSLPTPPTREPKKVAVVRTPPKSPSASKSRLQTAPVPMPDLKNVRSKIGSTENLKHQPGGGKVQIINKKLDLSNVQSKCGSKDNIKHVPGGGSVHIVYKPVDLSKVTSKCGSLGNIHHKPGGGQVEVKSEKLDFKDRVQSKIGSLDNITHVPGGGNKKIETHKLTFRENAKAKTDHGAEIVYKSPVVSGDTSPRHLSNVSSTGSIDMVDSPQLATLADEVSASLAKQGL

| Protein | S214 phosphorylation of tau, Western blot, 0.02 µg PRKX expression plasmid [1] | S214 phosphorylation of tau, Western blot, 0.06 µg PRKX expression plasmid [1] | S214 phosphorylation of tau, Western blot, 0.2 µg PRKX expression plasmid [1] | amount of S214 phosphorylated tau in the total tau, ELISA, 0.02 µg PRKX expression plasmid [1] | amount of S214 phosphorylated tau in the total tau, ELISA, 0.06 µg PRKX expression plasmid [1] | amount of S214 phosphorylated tau in the total tau, ELISA, 0.2 µg PRKX expression plasmid [1] | amount of S214 phosphorylated tau, ELISA, PRKX lentivirus MOI 1 [2] | amount of S214 phosphorylated tau, ELISA, PRKX lentivirus MOI 3 [2] | amount of S214 phosphorylated tau, ELISA, PRKX lentivirus MOI 6 [2] | S214 phosphorylation of tau, Western blot and ELISA [1] | amount of S214 phosphorylated tau, ELISA, D172A lentivirus MOI 1, 6 [2] |
| --- | --- | --- | --- | --- | --- | --- | --- | --- | --- | --- | --- |
| B1 | 1.3-fold, 1.9-fold and 2.9-fold enhanced S214 phosphorylation was found in the cells incorporating 0.02 µg, 0.06 µg and 0.2 µg of PRKX expression plasmid, respectively | 1.3-fold, 1.9-fold and 2.9-fold enhanced S214 phosphorylation was found in the cells incorporating 0.02 µg, 0.06 µg and 0.2 µg of PRKX expression plasmid, respectively | 1.3-fold, 1.9-fold and 2.9-fold enhanced S214 phosphorylation was found in the cells incorporating 0.02 µg, 0.06 µg and 0.2 µg of PRKX expression plasmid, respectively | 2.5-fold, 3.4-fold and 5.8-fold enhanced S214 phosphorylation was found in the cells incorporating 0.02 µg, 0.06 µg and 0.2 µg of PRKX expression plasmid, respectively | 2.5-fold, 3.4-fold and 5.8-fold enhanced S214 phosphorylation was found in the cells incorporating 0.02 µg, 0.06 µg and 0.2 µg of PRKX expression plasmid, respectively | 2.5-fold, 3.4-fold and 5.8-fold enhanced S214 phosphorylation was found in the cells incorporating 0.02 µg, 0.06 µg and 0.2 µg of PRKX expression plasmid, respectively | 3.0-fold, 4.2-fold and 6.3-fold enhanced amounts of S214 phosphorylated tau were found in the cells infected with PRKX overexpression lentivirus at MOI-1, 3 and 6, respectively | 3.0-fold, 4.2-fold and 6.3-fold enhanced amounts of S214 phosphorylated tau were found in the cells infected with PRKX overexpression lentivirus at MOI-1, 3 and 6, respectively | 3.0-fold, 4.2-fold and 6.3-fold enhanced amounts of S214 phosphorylated tau were found in the cells infected with PRKX overexpression lentivirus at MOI-1, 3 and 6, respectively |  |  |
| B2 |  |  |  |  |  |  |  |  |  | enhanced S214 phosphorylation was not found in pD172A tranfected cell | D172A overexpression lentivirus and lacZ overexpression lentivirus did not show an enhanced amount of S214 phosphorylated tau |
